# According to PMC4863622:
# Target: human Toll-like receptor 5, V5-tagged (hTLR5-V5) (human) (UniProt O60602)
# Sequence of UniProt O60602 (O60602 21-858): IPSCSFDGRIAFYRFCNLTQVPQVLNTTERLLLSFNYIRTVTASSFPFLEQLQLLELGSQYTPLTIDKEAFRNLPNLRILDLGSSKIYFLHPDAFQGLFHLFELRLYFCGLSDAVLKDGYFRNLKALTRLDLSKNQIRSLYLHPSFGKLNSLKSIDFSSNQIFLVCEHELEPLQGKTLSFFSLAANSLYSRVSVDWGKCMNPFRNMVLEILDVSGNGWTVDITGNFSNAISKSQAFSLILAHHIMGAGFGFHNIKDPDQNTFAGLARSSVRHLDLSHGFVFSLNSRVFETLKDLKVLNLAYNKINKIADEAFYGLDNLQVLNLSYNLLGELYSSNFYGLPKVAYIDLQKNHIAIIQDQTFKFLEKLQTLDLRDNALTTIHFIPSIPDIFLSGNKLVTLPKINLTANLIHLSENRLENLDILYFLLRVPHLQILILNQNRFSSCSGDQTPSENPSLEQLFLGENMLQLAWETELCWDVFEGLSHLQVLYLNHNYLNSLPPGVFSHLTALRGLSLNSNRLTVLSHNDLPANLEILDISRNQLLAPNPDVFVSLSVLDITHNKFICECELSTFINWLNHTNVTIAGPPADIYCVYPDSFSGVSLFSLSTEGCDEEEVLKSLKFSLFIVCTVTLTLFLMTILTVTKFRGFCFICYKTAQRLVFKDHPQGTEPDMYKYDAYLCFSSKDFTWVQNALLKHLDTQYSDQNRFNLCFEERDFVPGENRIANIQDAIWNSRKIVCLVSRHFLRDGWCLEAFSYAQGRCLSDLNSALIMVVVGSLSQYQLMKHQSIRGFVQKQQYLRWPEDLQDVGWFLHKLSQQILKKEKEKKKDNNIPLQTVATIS
substance,measurement,value
"Campylobacter jejuni FlaC, recombinant 6×His-FlaC–6×His (from UniProt P96747 1-249) (natural protein)","IL-10 mRNA (quantitative RT-PCR) in hTLR5-transfected HEK293 cells, against the hTLR5 control (data not shown)",6 fold
